Assay results published in the supplement of paper PMC11865577.

Key:
Test in all cases: pull-down binding Z-score (relative to library population); higher = stronger binding
Details in all cases: RNA library: Library-2
[1] = system: TO-3-N3-2 (biotin conjugate)
Method in brief: (§1)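 To score binding, a beads-only signal was subtracted, barcoded replicate probes were averaged with the highest and lowest dropped, and the value was converted to a Z-score using the library mean and standard deviation. The input was 1 μg of Cy5- or Cy3-end-labelled RNA library, heat-folded in phosphate/NaCl/KCl buffer and mixed for 60 min at 25 °C with streptavidin beads carrying 100 pmol of biotin-conjugated small molecule. Bound RNA was eluted in hot SDS and hybridised to a DNA barcode microarray at 55.5 °C for 20 h.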

[2] = system: TO-3-N3 (biotin conjugate)
Method in brief: as §1

[3] = system: TO-N3-2 (biotin conjugate)
Method in brief: as §1

[4] = system: TO-N3 (biotin conjugate)
Method in brief: as §1

Sequence: CAGGCAAGAAGGAUACUUACCUG [U1snRNP5ss-25]
- pull-down binding Z-score [1]: -0.366
- pull-down binding Z-score [2]: -0.164
- pull-down binding Z-score [3]: -0.695
- pull-down binding Z-score [4]: -0.353

Sequence: GCUGGCCUUGAAGCCCCUUUUCUCUAUCUUUAUGCUUUAGUCUACUUCUUGCAGAGUAUAAACUUUGUAAGAAUAAUAAUGAGGCUUUGGCUUUGC
- pull-down binding Z-score [1]: -0.413
- pull-down binding Z-score [2]: -0.79
- pull-down binding Z-score [3]: -0.575
- pull-down binding Z-score [4]: -0.969

Sequence: ACCAGUUAACUGGU [SHAPE_invitro_SARS-CoV-2_Motif_121]
- pull-down binding Z-score [1]: -0.55
- pull-down binding Z-score [2]: -0.713
- pull-down binding Z-score [3]: -1.19
- pull-down binding Z-score [4]: -1.1

Sequence: UAUUGAAAUCAAUA
- pull-down binding Z-score [1]: -0.77
- pull-down binding Z-score [2]: -0.553
- pull-down binding Z-score [3]: -1.72
- pull-down binding Z-score [4]: -0.987

Sequence: GAUGGUGGCUGUAUUAAUGCUAACCAAGUCAUCGUC
- pull-down binding Z-score [1]: 0.129
- pull-down binding Z-score [2]: -0.273
- pull-down binding Z-score [3]: 1.4
- pull-down binding Z-score [4]: 0.31

Sequence: GGUGUUGUUGGAGAAGGUUCCGAAGGUCUUAAUGACAACCUUCUUGAAAUACUCC
- pull-down binding Z-score [1]: 0.0401
- pull-down binding Z-score [2]: 0.245
- pull-down binding Z-score [3]: 0.062
- pull-down binding Z-score [4]: 0.261

Sequence: UCUUCAGGUUGGACAGCUGGUGCUGCAGCUUAUUAUGUGGGUUAUCUUCAACCUAGGA [DMSMaPseq_invitro_SARS-CoV-2_Multi_66_ComplexLevel_1]
- pull-down binding Z-score [1]: -0.178
- pull-down binding Z-score [2]: -0.145
- pull-down binding Z-score [3]: 0.0317
- pull-down binding Z-score [4]: 0.0485

Sequence: GAUGUUCUUGUUAACAACUAAACGAACAAUGUUUGUUUUUCUUGUUUUAUUGCCACUAGUCUCUAGUCAGUGUGUUAAUCUUACAACCAGAACUC [DMSMaPseq_invitro_SARS-CoV-2_Multi_63_ComplexLevel_1]
- pull-down binding Z-score [1]: 0.256
- pull-down binding Z-score [2]: 0.637
- pull-down binding Z-score [3]: -0.457
- pull-down binding Z-score [4]: 0.534

Sequence: AACUUUAGCUUGUUUUGUGCUUGCUGCUGUU
- pull-down binding Z-score [1]: -0.0892
- pull-down binding Z-score [2]: 0.701
- pull-down binding Z-score [3]: -0.708
- pull-down binding Z-score [4]: 0.34

Sequence: AUAAGAAAGACAAUUCUUAU [DMSMaPseq_invitro_SARS-CoV-2_Motif_114]
- pull-down binding Z-score [1]: -0.3
- pull-down binding Z-score [2]: -0.755
- pull-down binding Z-score [3]: -1.45
- pull-down binding Z-score [4]: -1.07

Sequence: AAGGGAGGGGCGGGUCGGGAA [G4_2A2_NRAS]
- pull-down binding Z-score [1]: 11.1
- pull-down binding Z-score [2]: 8.72
- pull-down binding Z-score [3]: 5.24
- pull-down binding Z-score [4]: 7.02

Sequence: GUCUAGCUGUCCACGAGUGCUUUGUUAAGCGUGUUGACUGGAC
- pull-down binding Z-score [1]: -0.348
- pull-down binding Z-score [2]: -0.128
- pull-down binding Z-score [3]: -0.24
- pull-down binding Z-score [4]: -0.138

Sequence: GGUCCAGCAACAGCUCAAAUGGCC [IAV_invivo_PB1_2_Motif_29+IAV_invivo_PB1_2_Motif_29]
- pull-down binding Z-score [1]: -0.356
- pull-down binding Z-score [2]: -0.414
- pull-down binding Z-score [3]: 0.392
- pull-down binding Z-score [4]: -0.26

Sequence: GCUUCUAGAAAGUGAACUCGUAAUCGGAGCUGUGAUCCUUCGUGGACAUCUUCGUAUUGCUGGACACCAUCUAGGACGC
- pull-down binding Z-score [1]: 0.191
- pull-down binding Z-score [2]: -0.191
- pull-down binding Z-score [3]: 1.23
- pull-down binding Z-score [4]: 0.335

Sequence: CACAUGAAGGUAAAACAUUUUAUGUUUUACCUAAUGAUG
- pull-down binding Z-score [1]: -0.743
- pull-down binding Z-score [2]: -0.659
- pull-down binding Z-score [3]: -0.256
- pull-down binding Z-score [4]: -0.73

Sequence: GCAGGAGCCUUAAAUAAGGCUACUAACAAUGC
- pull-down binding Z-score [1]: -0.0703
- pull-down binding Z-score [2]: 0.214
- pull-down binding Z-score [3]: -0.521
- pull-down binding Z-score [4]: 0.0366

Sequence: UGUUGCUUAUGAAAGUUUACGCCCUGACACACGUUAUGUGCUCAUGGAUGGCUCUAUUAUUCAAUUUCCUAACACCUACCUUGAAGGUUCUGUUAGAGUGGUAACA [SHAPE_invitro_SARS-CoV-2_Multi_27_ComplexLevel_1]
- pull-down binding Z-score [1]: 0.0467
- pull-down binding Z-score [2]: -0.56
- pull-down binding Z-score [3]: 0.0671
- pull-down binding Z-score [4]: -0.452

Sequence: CUAAGUCACUAACUGAGAAUAAAUAUUCUCAAUUAGAUGAAGAG
- pull-down binding Z-score [1]: -0.135
- pull-down binding Z-score [2]: -1.02
- pull-down binding Z-score [3]: -0.981
- pull-down binding Z-score [4]: -1.15

Sequence: GCUAUGGGUAUUAUUGCUAUGUCUGCUUUUGCAAUGAUGUUUGUCAAACAUAAGCAUGCAUUUCUCUGUUUGUUUUUGUUACCUUCUCUUGCCACUGUAGC
- pull-down binding Z-score [1]: -0.526
- pull-down binding Z-score [2]: -0.966
- pull-down binding Z-score [3]: -0.573
- pull-down binding Z-score [4]: -0.98

Sequence: GCGCUACUGCAACGAUACCGAUACAAGCCUCACUCCCUUUCGGAUGGCUUAUUGUUGGCGUUGCACUUCUUGCUGUUUUUCAGAGCGC
- pull-down binding Z-score [1]: 0.232
- pull-down binding Z-score [2]: -0.679
- pull-down binding Z-score [3]: 0.285
- pull-down binding Z-score [4]: -0.282

Sequence: CUAUUCAAACAAUUGUUGAGGUUCAACCUCAAUUAGAGAUGGAACUUACACCAGUUGUUCAGACUAUUGAAGUGAAUAGUUUUAG [SHAPE_invivo_SARS-CoV-2_Multi_36_ComplexLevel_1]
- pull-down binding Z-score [1]: -0.292
- pull-down binding Z-score [2]: -0.49
- pull-down binding Z-score [3]: -0.461
- pull-down binding Z-score [4]: -0.421

Sequence: GUGCUAAUGACCCUGUGGGUUUUACAC [SHAPE_invivo_SARS-CoV-2_Motif_252]
- pull-down binding Z-score [1]: -0.275
- pull-down binding Z-score [2]: 0.178
- pull-down binding Z-score [3]: -0.465
- pull-down binding Z-score [4]: 0.0247

Sequence: UGCAAGAGAUGGUUGUGUUCCCUUGAACAUAAUACCUCUUACA [DMSMaPseq_invitro_SARS-CoV-2_Motif_219]
- pull-down binding Z-score [1]: -0.0456
- pull-down binding Z-score [2]: -0.678
- pull-down binding Z-score [3]: -1.18
- pull-down binding Z-score [4]: -1.01

Sequence: GACAGUGGUUGCCUACGGGUACGCUGCUUGUC
- pull-down binding Z-score [1]: -0.021
- pull-down binding Z-score [2]: 0.731
- pull-down binding Z-score [3]: 0.01
- pull-down binding Z-score [4]: 0.666

Sequence: GUGGUUGACCUACACAGGUGCCAU
- pull-down binding Z-score [1]: -0.562
- pull-down binding Z-score [2]: -0.678
- pull-down binding Z-score [3]: 0.102
- pull-down binding Z-score [4]: -0.612

Sequence: CUGUUCCACCAUUGAAGAGCUCAG [IAV_invivo_PB1_2_Motif_38+IAV_invivo_PB1_2_Motif_38]
- pull-down binding Z-score [1]: -0.178
- pull-down binding Z-score [2]: -0.372
- pull-down binding Z-score [3]: 0.457
- pull-down binding Z-score [4]: 0.134

Sequence: GGGCUCAUACCC [IAV_invivo_HA_4_Motif_7+IAV_invivo_HA_4_Motif_7]
- pull-down binding Z-score [1]: 0.875
- pull-down binding Z-score [2]: 0.721
- pull-down binding Z-score [3]: 0.397
- pull-down binding Z-score [4]: 0.483

Sequence: UGACAUGACUCUUGAGGAAAUGUCA [IAV_invivo_NS1_NEP_8_Motif_7+IAV_invivo_NS1_NEP_8_Motif_7]
- pull-down binding Z-score [1]: -0.773
- pull-down binding Z-score [2]: -0.475
- pull-down binding Z-score [3]: -1.21
- pull-down binding Z-score [4]: -0.87

Sequence: AUGAGUACGAACUUAUGUACUCAU
- pull-down binding Z-score [1]: -0.43
- pull-down binding Z-score [2]: -0.0199
- pull-down binding Z-score [3]: -1.18
- pull-down binding Z-score [4]: -0.309

Sequence: UGUCUUUCGAUCAAAACCUGGAUUAUCAAAUAGGAUACAUCUGCAGUGGGGUUUUCGGUGACAACCCGCGUCCCGAAGAUGGAACAGGCA
- pull-down binding Z-score [1]: -0.424
- pull-down binding Z-score [2]: -0.887
- pull-down binding Z-score [3]: 0.432
- pull-down binding Z-score [4]: -0.552

Sequence: CCUGCACCACGCACAUUGCUAACUAAGG [SHAPE_invitro_SARS-CoV-2_Motif_318]
- pull-down binding Z-score [1]: -0.173
- pull-down binding Z-score [2]: -0.429
- pull-down binding Z-score [3]: 0.0122
- pull-down binding Z-score [4]: -0.204

Sequence: ACACAUUCUGACAAAUUCACAGAUGGUGU [SHAPE_invitro_SARS-CoV-2_Motif_350]
- pull-down binding Z-score [1]: -0.395
- pull-down binding Z-score [2]: -0.577
- pull-down binding Z-score [3]: 0.264
- pull-down binding Z-score [4]: -0.471

Sequence: UCUGUUUGGAACUUUAAUUUUAGCCAUGGCAGA
- pull-down binding Z-score [1]: -0.0381
- pull-down binding Z-score [2]: -0.689
- pull-down binding Z-score [3]: 0.0796
- pull-down binding Z-score [4]: -0.72
